One protein from publication PMC5148593, “Using the Amino Acid Network to Modulate the Hydrolytic Activity of β-Glycosidases” (PLoS ONE, 2016) can be followed below.

Substrate in this data set: O=[N+]([O-])c1ccc(O[C@@H]2O[C@H](CO)[C@@H](O)[C@H](O)[C@H]2O)cc1
Nature of the data set: purified protein. The settings on record: 100 mM sodium citrate-sodium phosphate pH 6.0, 30°C. The format is biochemical, Spodoptera frugiperda.

B1: Sfβgly (Spodoptera frugiperda) (protein)
chain: QQRRFPDDFLFGTATASYQIEGAWDEDGKGENIWDYMVHNTPEVIRDLSNGDIAADSYHNYKRDVEMMRELGLDAYRFSLSWARILPTGMANEVNPAGIAFYNNYIDEMLKYNITPLITLYHWDLPQKLQELGGFANPLISDWFEDYARVVFENFGDRVKMFITFNEPREICFEGYGSATKAPILNATAMGAYLCAKNLVTAHAKAYYLYDREFRPVQGGQCGITISVNWFGPATPTPEDEMAAELRRQGEWGIYAHPIFSAEGGFPKELSDKIAEKSAQQGYPWSRLPEFTEEEKAFVRGTSDLIGVNHYTAFLVSATERKGPYPVPSLLDDVDTGSWADDSWLKSASAWLTLAPNSIHTALTHLNNLYNKPVFYITENGWSTDESRENSLIDDDRIQYYRASMESLLNCLDDGINLKGYMAWSLMDNFEWMEGYIERFGLYEVDFSDPARTRTPRKAAFVYKHIIKHRVVDYEYEPETMVMTIDEGH
notes: kinetics: gene in pAE plasmid, E. coli NovaBlue (DE3), Ni-NTA purified (His tag kept); mature protein 21-509 (borders printed for the P. pastoris pPIC9 crystal construct, 5CG0, glycosylated at N206); monomer-dimer equilibrium
Usually Km stands for the substrate concentration at which the rate is half of its maximum. In general, kcat refers to the maximal rate divided by the concentration of active sites. B1: the Km turned out to be 2300 µM and the turnover number (kcat) came to 0.61 s⁻¹.
